Laboratory results: patent US6133417

Legend:
[1] = biological target: NADPH-cytochrome P-450 oxidoreductase purified from Sorghum bicolor (Sorghum bicolor)
[2] = biological target: NADPH-cytochrome P-450 oxidoreductase purified from Sorghum bicolor (Sorghum bicolor); remark: listed apart in the source

| oxime production in reconstitution experiments in dilaurylphosphatidylcholine micelles (turnover rate) (nmol oxime per nmol P-450TYR per minute) [1] | conversion of L-tyrosine to p-hydroxyphenylacetaldehyde oxime by the enzyme reconstituted in DLPC micelles (turn-over number) [2] | Molecule |
| --- | --- | --- |
| 349 | – | modified cytochrome P-450TYR, in which the 35 N-terminal amino acids are replaced by the nine N-terminal amino acids from bovine 17alpha hydroxylase, expressed in E. coli (from UniProt P05185) (enzyme) |
| – | 228 min⁻¹ | cytochrome P-450TYR from Sorghum bicolor (L.) Moench (enzyme) ATMEVEAAAATVLAAPLLSSSAILKLLLFVVTLSYLARALRRPRKSTTKCSSTTCASPPAGVGNPPLPPGPVPWPVVGNLPEMLLNKPAFRWIHQMMREMGTDIACVKLGGVHVVSITCPEIAREVLRKQDANFISRPLTFASETFSGGYRNAVLSPYGDQWKKMRRVLTSEIICPSRHAWLHDKRTDEADNLTRYVYNLATKAATGDVAVDVRHVARHYCGNVIRRLMFNRRYFGEPQADGGPGPMEVLHMDAVFTSLGLLYAFCVSDYLPWLRGLDLDGHEKIVKEANVAVNRLHDTVIDDRWRQWKSGERQEMEDFLDVLITLKDAQGNPLLTIEEVKAQSQDITFAAVDNPSNAVEWALAEMVNNPEVMAKAMEELDRVVGRERLVQESDIPKLNYVKACIREAFRLHPVAPFNVPHVALADTTIAGYRVPKGSHVILSRTGLGRNPRVWDEPLRFYPDRHLATAASDVALTENDLRFISFSTGRRGCIAASLGTAMSVMLFGRLLQGFTWSKPAGVEAVDLSESKSDTFMATPLVLHAEPRLPAHLYPSISI |
